How the values were obtained:
[1] = biological target: AcrIIC2Nme (purified, pHAT4 construct with N-terminal 6-His tag) (not stated (suffix Nme; its cognate Cas9 is from N. meningitidis)); test: crystal structure; AcrIIC2Nme alone; Se-SAD; 2.5 Å
[2] = biological target: Nme1Cas9 (purified, full length) (N. meningitidis); test: ITC; 100 μM AcrIIC2Nme titrated into 10 μM Nme1Cas9; 20 °C; 300 mM NaCl, 20 mM Tris pH 7.5; One Set of Sites model
[3] = biological target: AcrIIC2Nme (purified, pET28a-Sumo construct) (not stated (suffix Nme; its cognate Cas9 is from N. meningitidis)); test: crystal structure; Nme1Cas9 and AcrIIC2Nme mixed 1:10, complex purified by gel filtration; hanging drop, 16 °C; Nme1Cas9 digested during crystallization; 2.6 Å
[4] = biological target: Nme1Cas9 (purified, full length) (N. meningitidis)

| stoichiometry N [1] | Kd [2] [nM] | stoichiometry N [3] | in vitro DNA cleavage by Nme1Cas9; sgRNA and AcrIIC2Nme added simultaneously; excess of AcrIIC2Nme needed to block cleavage [4] [fold excess] | Substance |
| --- | --- | --- | --- | --- |
| 2 | – | – | – | AcrIIC2Nme (purified, pHAT4 construct with N-terminal 6-His tag) (natural protein) |
| – | 200 | 2 | > 10 | AcrIIC2Nme (purified, pET28a-Sumo construct) (natural protein) |

Reference: PMC6594998
